The record followed here is patent publication US20190352423A1 (Genmab, published 2019).

In assay [1] the target is T1, recombinant human CD63 second extracellular domain (Ala 103-Val 203) fused with a polyhistidine tag at the … (human, UniProt P08962 103-203).
T1 construct: range 103-203; Bought from Creative BioMart; also called human His-tagged CD63; soluble CD63
T1 sequence (looked up): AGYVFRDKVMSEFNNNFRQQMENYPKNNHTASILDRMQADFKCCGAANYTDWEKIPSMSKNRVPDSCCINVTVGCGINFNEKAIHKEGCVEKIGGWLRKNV
Nature of the assay: BLI (Octet HTX), IgG on anti-human Fc sensors, His-tagged CD63 as analyte, 30 C. How it is done:
Association and dissociation kinetics of human His-tagged CD63 (100 nM, 50 nM, 25 nM and 12.5 nM, concentrations were calculated using the predicted molecular weight of 13 kDa) were determined in Sample Diluent (ForteBio), using an association time of 1000 s, a dissociation time of 2000 s and a shaker speed of 1000 rpm at 30° C. Data traces were corrected using a reference sensor exposed to Sample Diluent only during the association and dissociation steps, the Y-axis was aligned to baseline and Inter-step correction as well as Savitzky-Golay filtering were applied. The association rate constant Kₒₙ (1/Ms), dissociation rate constant Kdis (1/s) and equilibrium dissociation constant KD (M) were determined with ForteBio Data Analysis Software v8.1, using the 1:1 model and a global full fit.

Assay [2] addresses T1, recombinant human CD63 second …. Nature of the assay: ELISA: antibody (1 µg/mL) captured on goat anti-human IgG, recombinant human His-tagged CD63 serially diluted (x axis, µg/mL CD63), detected with anti-poly-histidine-biotin, OD 405 nm. The source says:
To improve efficacy of ADCs, a bispecific ADC was generated that specifically binds to a target protein (T) with one Fab-arm, while its second Fab-arm binds an effector protein (E), that facilitates internalization and lysosomal delivery of the cytotoxic payload. The resulting bsADC should induce cytotoxicity in cells that express both T and E. Some cytotoxicity may also be induced in cells that express T but not E, whereas the bsADC should not induce cytotoxicity in cells that express E but not TCD63 is used as effector protein (E). To ensure tumor specificity of the bsAb, the anti-CD63 arm (E) of the bsAb should preferably not bind and internalize in the absence of the tumor-specific arm (T) or only do this to a very limited degree. […] In short, ELISA plates (Greiner) were coated overnight at 4° C. with 0.8 μg/mL goat anti-human IgG (Jackson). […] Serially diluted (1-0.0005 μg/mL) recombinant human CD63 (Creative Biomart) was added followed by 1 μg/mL mouse anti-poly-histidine-biotin (R&D). The reaction was visualized using ABTS and stopped with oxalic acid. […] at 405 nm was measured and depicted using Graph Pad Prism 6 software.

B1: wild type IgG1-CD63 (antibody, V domains shown)
VH: EVQLQQSGPELVKPGASVKMSCKASGYTFTSYVMHWVRQTPGQGLEWIGYITPYNDGTKYNEKFKGKATLTSDKSSSTAYMELSSLTSEDSAVYYCVGGDNYYYAMDYWGQGTSVTVSA
VL: NIMVTQSPSSLAVSAGEKVTMSCKSSQSVLYSSNQKNYLAWYQQKPGQSPKLLIYWASTRVSGVPDRFTGSGSGTDFTLTISRVQAEDLAVYYCHQYFSSFTFGSGTKLEIKR
notes: Mouse 2192 variable domains on human IgG1 constant domains (heavy chain with K409R or F405L) and a human light chain constant domain; also called wt IgG1-CD63; WT
A word on the Kd: it is the equilibrium constant for the complex coming apart. As a reminder, the koff is a measure of how fast the partners let go of each other. By kon is commonly meant the rate constant with which the complex forms. The EC50 (read off the curve) is the concentration that produces a half-maximal response. Consider B1, for which, in assay [1], the Kd turned out to be 0.54 nM, the koff is 0.00011 s⁻¹ and the kon is 200000 M⁻¹ s⁻¹. Further, the “EC50 (read off the curve)” value in assay [2] is approximately 0.01 µg/mL.

B2: IgG1-CD63N74H (antibody, V domains shown)
VH: EVQLQQSGPELVKPGASVKMSCKASGYTFTSYVMHWVRQTPGQGLEWIGYITPYHDGTKYNEKFKGKATLTSDKSSSTAYMELSSLTSEDSAVYYCVGGDNYYYAMDYWGQGTSVTVSA
VL: NIMVTQSPSSLAVSAGEKVTMSCKSSQSVLYSSNQKNYLAWYQQKPGQSPKLLIYWASTRVSGVPDRFTGSGSGTDFTLTISRVQAEDLAVYYCHQYFSSFTFGSGTKLEIKR
notes: also called anti-CD63-N74H
Take B2: in assay [1], the Kd came out at 4.1 nM, the koff turned out to be 0.00069 s⁻¹ and the kon was found to be 170000 M⁻¹ s⁻¹. Moreover, in assay [2], the “EC50 (read off the curve)” value was approximately 0.06 µg/mL.
